Here are results for 2 variants from IntAct's records for PubMed 15226396.

Sequences and labels used below:
B1: Tyrosine-protein phosphatase non-receptor type 1 (Gallus gallus (Chicken)), O13016 (parent)
chain: MEIEKEFHRLDQAASWAAIYQDIRHEASDFPCKVAKHPRNKNRNRYRDVSPFDHSRIKLNQGDNDYINASLIKMEEAQRSYILTQGPLPNTCGHFWEMVWEQKSRGVVMLNRVMEKGSIKCAQYWPRKEEKEMFFEDTNLKLTLISEDIKSYYTVRQLELENLTTQETREILHFHYTTWPDFGVPESPASFLNFLFKVRESGSLNPEYGPVVVHCSAGIGRSGTFCLVDTCLLLMDKRKDPSSVDVKQVLLEMRKYRMGLIQTADQLRFSYLAVIEGAKFIMGDASVQEQWKELSNEDLDPPPEHTPPPPRPPKRTSEMHNGRMHEHAEFFPKHQVVEEEIRCSVSTAEETVSDGRVFSSVPLITDSTSQDTEIRRRTVGENLHVTAHKEESKSESVEEDDENMMTTWKPFLVNICMFTFLTAGAYLCYRVCFH

In the assay the parent is B1. As to conditions: with fer_human FER.
For MEIEKEFHRLDQAASWAAIYQDIRHEASDFPCKVAKHPRNKNRNRYRDVSPFDHSRIKLNQGDNDYINASLIKMEEAQRSYILTQGPLPNTCGHFWEMVWEQKSRGVVMLNRVMEKGSIKCAQYWPRKEEKEMFFEDTNLKLTLISEDIKSYYTVRQLELENLTTQETREILHFHYTTWPDFGVPESPASFLNFLFKVRESGSLNPEYGPVVVHSSAGIGRSGTFCLVDTCLLLMDKRKDPSSVDVKQVLLEMRKYRMGLIQTADQLRFSYLAVIEGAKFIMGDASVQEQWKELSNEDLDPPPEHTPPPPRPPKRTSEMHNGRMHEHAEFFPKHQVVEEEIRCSVSTAEETVSDGRVFSSVPLITDSTSQDTEIRRRTVGENLHVTAHKEESKSESVEEDDENMMTTWKPFLVNICMFTFLTAGAYLCYRVCFH [C215S], the “effect of a mutation on the interaction” value is recorded as “disrupting interaction”.

For MEIEKEFHRLDQAASWAAIYQDIRHEASDFPCKVAKHPRNKNRNRYRDVSPFDHSRIKLNQGDNDYINASLIKMEEAQRSYILTQGPLPNTCGHFWEMVWEQKSRGVVMLNRVMEKGSIKCAQYWPRKEEKEMFFEDTNLKLTLISEDIKSFYTVRQLELENLTTQETREILHFHYTTWPDFGVPESPASFLNFLFKVRESGSLNPEYGPVVVHCSAGIGRSGTFCLVDTCLLLMDKRKDPSSVDVKQVLLEMRKYRMGLIQTADQLRFSYLAVIEGAKFIMGDASVQEQWKELSNEDLDPPPEHTPPPPRPPKRTSEMHNGRMHEHAEFFPKHQVVEEEIRCSVSTAEETVSDGRVFSSVPLITDSTSQDTEIRRRTVGENLHVTAHKEESKSESVEEDDENMMTTWKPFLVNICMFTFLTAGAYLCYRVCFH [Y152F], the “effect of a mutation on the interaction” value is “disrupting interaction”.
